{
  "source": "the DeepSol protein solubility set",
  "data": [
    {"assay": "soluble on expression in E. coli; label from the status in PepcDB or PDB records", "values": [
      {"sequence": "MITVVIADRLGKGQNVAKGVEQAGGRAVVVPGMGADMRLGDVMQQEKADLGISFCGSGGAGALTAATKYGYPERHGMRSIEEGVTAINDGKTVLGFGFMDQEELGKRVTEAFIKKHGA", "soluble on expression in E. coli": "not soluble"},
      {"sequence": "MGSDKIHHHHHHMGKGFTGAILTVMGVKSHIATTTGKTVINDRMVTIHFHSETLLNTEGEVPGDWLRLWFPHESRPGKLYQRAYTLTNVDADAGTFDLAFVLHEPLGPASAWATRCEAGESLEVMRYPGIPFAIPDPAPRGFLFLGDLTSYPAICSILETLDGEIPATAYLIAHDPLDYTFDFPQGEHITAQWISNEQSFIDHIADTDYTDFYTWIGAESSETRAAKKHLQTHAGMPKTHMNAQGYWNKGRAMGKSN", "soluble on expression in E. coli": "not soluble"},
      {"sequence": "MATKFNRILVGVDDSADALLAFDYAIHQAKQDGAELVIISILENDEMNVYQALSKDYIHGERQELEQHILKYQKQAQAAGVTKVHAMIAEGEPGETIVKEVIPHVQPDLLIIGSLAKKGIAKHFGSQAAYMAKYAPISVLVIR", "soluble on expression in E. coli": "not soluble"},
      {"sequence": "MLSKKELAIITFLIHHKEQFVSSATLAEVIGMSDRTVRKYLKELISSLPEHGAHIISKQGRGYCLEIDHSMAFDIFWQESVTSKKRLADVTQVEESVDREDYVLHKFFFEDAVQDFEELCQELYISRTTLKHVLAGIKERIIPYQLELEITHQHIQIRGKEEDIRHFIMDYFFVTSFDNTLSTMVGNTFLEGINFAEIMIIVLDECRDAKLKLSDFVMNNLVLHIALMVQRIRSGCPLELFSIPIAIRQSDEYQVALRILYRVEEVMGIRFPKEEANYIALHLKVKHSVGKHWQDDNTDEKLQDHLKACIAKISQLTGMTLETDTNLFQGLLAHMMPLTIRLENHIQLTNPLTEEIKSQYPEIFTLTKQTFSDLLVCQKNDVSDDEWAYISLHLMAAIERYSNRHKLRVLVVCATGYGSAMMLKNRLEKEFEGRLRIVDVISYYEITEERLKTVDLIISSISLANLMFLTPVITVSVFLSNQDIETIRQFIGEQEGIKKEVSLPSQMSLAKAEQLLTGVFSPNRFLYLDEKISKEDLLLRMIACLDEAGTETFVEDFYHQMVLRENYSPVIYGEVLAFPHPANPMTYSEQVVVVICREPLEWDKAHQAVHFVFLLSPSKGHNHRLKYVSPGLASFVNQVELQQALLEEPNYSKFMTVFTPLIHD", "soluble on expression in E. coli": "not soluble"},
      {"sequence": "MMNSIKFIFLGDVYGKAGRNIIKNNLAQLKSKYQADLVIVNAENTTHGKGLSLKHYEFLKEAGVNYITMGNHTWFQKLDLAVVINKKDLVRPLNLDTSFAFHNLGQGSLVFEFNKAKIRITNLLGTSVPLPFKTTNPFKVLKELILKRDCDLHIVDFHAETTSEKNAFCMAFDGYVTTIFGTHTHVPSADLRITPKGSAYITDVGMCGPGFGSVIGANPEQSIRLFCAGSREHFEVSKCGAQLNGVFFEVDVNTKKVIKTEAIRIVEDDPRYLKQDYFNLI", "soluble on expression in E. coli": "soluble"},
      {"sequence": "MAHHHHHHSSGLEVLFQGPEPKKYAVTDDYQLSKQVLGLGVNGKVLECFHRRTGQKCALKLLYDSPKARQEVDHHWQASGGPHIVCILDVYENMHHGKRCLLIIMECMEGGELFSRIQERGDQAFTEREAAEIMRDIGTAIQFLHSHNIAHRDVKPENLLYTSKEKDAVLKLTDFGFAKETTQNALQTPCYTPYYVAPEVLGPEKYDKSCDMWSLGVIMYILLCGFPPFYSNTGQAISPGMKRRIRLGQYGFPNPEWSEVSEDAKQLIRLLLKTDPTERLTITQFMNHPWINQSMVVPQTPLHTARVLQEDKDHWDEVKEEMTSALATMRVDYDQV", "soluble on expression in E. coli": "soluble"},
      {"sequence": "SNAMATKLVIAIVQDKDANYLSDQFIDQNVRATKLSTTGGFLQSGNTTFMIGIEEERVPEVLEIIKKASHTREEFMTPSVNMDVNMEGTTAYPIKVQVGGATVLVLPVDQFERF", "soluble on expression in E. coli": "soluble"},
      {"sequence": "MIRTVMDFKFVLRLLEANQFENEVVEYKKNNKDFIVLGKNISALSNTAALLGIDKAYIIFGIEDGTLNIVGTNFKPKQEKKGNEELESWLHKVLKPNIEFKIHEITEKEIRLVVFEIEATKISPIKFEEKAYIRIGSNRKELDKYPEKEKKLWQVLSGFSFENEIAKSNLNIQDIYDLLDYSKCFDMLDISYDNYSSDEYIIEKLIEHGLVKNLNDSFAITNLGAILFAKDLTKFKGLNRKRIRFIRYQGKNKIHTLEELEGRKGYAIGFQGLISYIMQYVPKNEVIENAIRKDTTLYPEIAIRELVANAIIHQDFTINGRNPMIEMYSDRIEITNNGKSLIDIKRLIDMPSKSRNDKLANLMRIMGICEERGSGVDKVIDSVEAYQLPAPDFINNEDYFQAILFSHMPLEDMTKQDRIRATYQHCCLKWASREAMTNASLRARFKIGDKQHSKASKIISDTLEAGLIKQQDPENKSTKHVKYVPFFV", "soluble on expression in E. coli": "not soluble"},
      {"sequence": "MTIQTVIKENAYFDSVTLMTISTRANELAGVKTAMIGMGTDMNLEVIRNVGLYTPALDHVTTGDLLIVLDLDDQANSEEILQQVDELFTKKKKTASSEVTYKTLDSALHEEPDANLVVISVNGKFAAREAHKALDQQKHVMLFSDNVTVDEELALKQKAHEKELFVMGPDCGTAIINGVGLCFANEVRSGDIGIVGASGTGSQEVSVQIHKYGYGISQLIGTGGRDLSAEIGGLMMLDGLDTLMVDEQTKAILLISKPPAPEVTEKILKKLAVSTKPVVIYFIGSEQTERKIDNVTFATSSLDAVQKVIQFSQTQEAETSLYQNPTGATLTAIQQQQAPSQKFVRGLFCGGTLCDELLYALTEVSDDVYSNIHKISERQLANPDHSQAHTLIDFGDDRFTEGRPHPMIDPTSRITRILQEAKDPEVAVLALDFELGYGSHENPVGVLAEALKEAKAIAKADGRELAIIGYVLGTEEDPQDIHEQRKILEDLEVLVVDSSHQLCEATKTFVKGANEHEQK", "soluble on expression in E. coli": "not soluble"},
      {"sequence": "GSPGISGGGGGILGLMAEQEPTAEQLAQIAAENEEDEHSVNYKPPAQKSIQEIQELDKDDESLRKYKEALLGRVAVSADPNVPNVVVTRLTLVCSTAPGPLELDLTGDLESFKKQSFVLKEGVEYRIKISFRVNREIVSGMKYIQHTYRKGVKIDKTDYMVGSYGPRAEEYEFLTPMEEAPKGMLARGSYNIKSRFTDDDRTDHLSWEWNLTIKKEWKD", "soluble on expression in E. coli": "soluble"},
      {"sequence": "MMIYCARIVAIGLFVADGLTDKMLITFDSNGPKDCLDYSLSLEPSFREESLMILPGDRLLLAGHDYLVTSVGKGAQQALFELGHLTLVFNGDLNACHVGAVHLSGPVPKLRDLHGNLVIEEGRP", "soluble on expression in E. coli": "soluble"},
      {"sequence": "MDASTHFRDRGALITGLMSGALDAVDAVARTRPAVEVLGLLVPVDGLMEDYLNGRAREGLGVTRSEFEPWRRQLLAVVAALLERWVGDDADLWRALAMRAGSYCGTVVELVDSVVRPEHADPASWAGRAPRWPRGVDASAVLLALAPPGIAEAFLDDCVTNAAAAGVLTRMLDRGPLHPLFVEYALGSLGTEAMRASLNRNPAYAIAQLRDQVLRERTDIAVLEHAYFAPPTDRALRVGLVRLAEAVGGFRPRFISRLESHAEDIASLEPLLVCSDPQLVHWVLRRVNATLKVPAMRWAAYATLALTAGPEPVWALEQERVGTLSRMAEPVRASMSTGSVAPILAAAGAAPVTIGPAGSAIELGAPLIEPWPYTELICEHVEGDGHRADPVDKPAADRPSSTRLGRSAEV", "soluble on expression in E. coli": "not soluble"},
      {"sequence": "MGSDKIHHHHHHMRIIEASAVHAAVRQMILAANRVLGDDVYAALKSSMESETSASGREVLRQLLENADLAASGGLALCQDTGAAVFFVEMGEDVRLGGGSLQHVLNSAMAQAYEEGCLRKSMCHPLTRCNTGDNRPAIVHTELVEGDRLTIRYMAKGGGSENMSRCTMLTPAQGWQGIKEFVVRRMAEAGPNPCPPTIVGVGIGGTFDLAPALAKRALFRRLDDVHPDAEVAAMETELLDALNALGIGPMGLGGRTTCLAVKIALHPCHIASLPVAVNVQCHSARHREVIL", "soluble on expression in E. coli": "not soluble"},
      {"sequence": "MAHHHHHHMTVYPSLFVCHGGGPLPLLRDEGHKMLVDALKSHRKLLENRFGLPKAIVVISAHYETNTPKVGGAERPSLLFDYYGFPEESYKFRYPVPGNAPLAAAIVNALTVGGFHAEMEPERLLDHGVFVPLMIMFPEANIPVVPLSVLRSGDPAEHIRMGKALRPLRSDAVMFIGSGSTMHHFAHFNREGAGRKFGDALTSILCKNEVATLPEDRLKAMERVKTMEGFTEAQPLREHEHLMPLLTLVGAANGNIAEEVASISFGRANVRNYLFTE", "soluble on expression in E. coli": "not soluble"},
      {"sequence": "MSLNMTSKETKEGLAGYFSSDAAKMQSNNVSPVANNPFVQSTDKLDTRDFKITEVERSHYAIAQKLRQMLMADATPQSASGISADDVGVQLRVNSDIMYAPGSAELAPEGAKVLDDVIRILKEYNLYLVVRGHTDSGEPRNSIYPSNWELSGARAAAAVRYIITHGEIKPTRLRSIAYADTRPLEPNTSPDSRAKNRRVEFYFHRPEVMSYSVVYEGHHHHHH", "soluble on expression in E. coli": "soluble"},
      {"sequence": "MGSDKIHHHHHHMRVEIIFLGCGGGRWATITQKKATGGFRIHTNELRMHVDPGPGAIVRLNELKISPWRTNALFISHCHPDHYTDGEIIVEAITQGMTKKRGVFLGSLSVVEGFGEYEYVVSKYHQSKLEEVRVLYPGDSAELYDTTIKATHTKHGDPFGIGFRLSTIYGDIGYTSDTEFIPQLIEDFDGVRILIANIVRKKNERIKGHLCSNDAIDLINSMNKKPELLIMNHMGVKMTNPQIEAEYISQNTGIEVIPARLGLKVELLNGKYKYQLIK", "soluble on expression in E. coli": "not soluble"},
      {"sequence": "MGSSHHHHHHSSGLVPRGSHMNAPIETDVLILGGGPVGMALALDLAHRQVGHLVVEQTDGTITHPRVGTIGPRSMELFRRWGVAKQIRTAGWPGDHPLDAAWVTRVGGHEVYRIPLGTADTRATPEHTPEPDAICPQHWLAPLLAEAVGERLRTRSRLDSFEQRDDHVRATITDLRTGATRAVHARYLVACDGASSPTRKALGIDAPPRHRTQVFRNILFRAPELRSLLGERAALFFFLMLSSSLRFPLRALDGRGLYRLTVGVDDASKSTMDSFELVRRAVAFDTEIEVLSDSEWHLTHRVADSFSAGRVFLTGDAAHTLSPSGGFGMNTGIGSAADLGWKLAATLRGWAGPGLLATYEEERRPVAITSLEEANVNLRRTMDRELPPGLHDDGPRGERIRAAVAEKLERSGARREFDAPGIHFGHTYRSSIVCGEPETEVATGGWRPSARPGARAPHAWLTPTTSTLDLFGRGFVLLSFGTTDGVEAVTRAFADRHVPLETVTCHAPEIHALYERAHVLVRPDGHVAWRGDHLPAELGGLVDKVRGAA", "soluble on expression in E. coli": "soluble"},
      {"sequence": "MAHHHHHHMGTLEAQTQGPGSMSFFLTTPAAIDLGVNIDHVATLRNARGTAYPDPVRAALAAEDAGADAITLHLREDRRHIVDADVRTLRPRVKTRMNLECAVTPEMLDIACEIRPHDACLVPEKRSELTTEGGLDVVGHFDAVRAACKQLADAGVRVSLFIDPDEAQIRAAHETGAPVIELHTGRYADAHDAAEQQREFERIATGVDAGIALGLKVNAGHGLHYTNVQAIAALPGIAELNIGHAIVAHAVFVGWDNAVREMKAIMVAARVAALHGGR", "soluble on expression in E. coli": "soluble"},
      {"sequence": "MAGQEFEKLLFYIVTVPFFVRAEPTTGELINPQAGAPFFLATAATTMDYEVEMVITSEAGYLLMRDNAKKVKVRPGVEQTVYDFIKMAKDAGVKIYLCTPSLDLTDIYKEEDVNKEICDGILGGAAFLDKLMSGEYAVITL", "soluble on expression in E. coli": "not soluble"}
    ]}
  ]
}
